Laboratory results taken from patent US20220056137A1 (GIGAGEN, published 2022).

What was measured:
[1] = biological target: T1, PD-L1 expressed on CHO cells (human, UniProt Q9NZQ7 19-290); test: cell-based or functional assay
rhPD-L1-Fc = biological target: T2, rhPD-L1-Fc (human, UniProt Q9NZQ7 19-239, limits assumed); test: competition ELISA: plate-bound rhPD-L1-Fc, antibody titrated, competitor rhCD80-His detected
T2 construct: Recombinant human PD-L1-Fc coated on ELISA plates; not shown: Fc part

[2] = biological target: T3, human PD-L1 protein (soluble) (human, UniProt Q9NZQ7 19-239); test: BLI (Octet), antibody on AHC biosensor, PD-L1 as analyte
T3 construct: also called PD-L1 (R&D Systems); His-tagged PD-L1 protein
Experimental: (§1) For BLI, antibodies were loaded onto an Anti-Human IgG Fc (AHC) biosensor using the Octet Red96 system (ForteBio). Loaded biosensors were dipped into antigen dilutions beginning at 300 nM, with 6 serial dilutions at 1:3. Kinetic analysis was performed using a 1:1 binding model and global fitting.

[3] = biological target: T3, human PD-L1 protein (soluble); test: as above; remark: listed apart in the source
Experimental: as §1

[4] = biological target: T3, human PD-L1 protein (soluble); test: SPR, mAb captured on anti-human IgG Fc, PD-L1 as analyte;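 as to koff: array SPR with mAb supernatants captured at several densities, PD-L1 injected for 5 min then 15 min dissociation, non-regenerative kinetic series, double-referenced against interspot surface and blank injection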;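 as to kon: array SPR with mAb supernatants captured at several densities, PD-L1 injected for 5 min then 15 min dissociation, non-regenerative kinetic series, double-referenced against interspot surface and blank injection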
Experimental: (§2) The surface was then deactivated with 1 M ethanolamine pH 8.5 (Carterra Inc.). Running buffer used for the lawn immobilization was HBS-EPC (10 mM HEPES, 150 mM NaCl, 3 mM EDTA, 0.05% Tween 20, pH 7.4; Teknova).
(§3) The sensor chip was then transferred to a continuous flow microspotter (CFM; Carterra Inc.) for array capturing. The mAb supernatants were diluted 50-fold (3-10 mg/mL final concentration) into HBS-EPC with 1 mg/mL BSA. The samples were each captured twice with 15-minute and 4-minute capture steps on the first and second prints, respectively, to create multiple densities, using a 65 mL/min flow rate. The running buffer in the CFM was also HBS-EPC.
(§4) Next, the sensor chip was loaded onto an SPR reader (MX-96 system; Ibis Technologies) for the kinetic analysis. […] PD-L1 injections were 5 minutes with a 15-minute dissociation at 8 mL/second in a non-regenerative kinetic series. An injection of the goat anti-Human IgG Fc capture antibody at 75 mg/mL was injected at the end of the series to verify the capture level of each mAb. Binding data was double referenced by subtracting an interspot surface and a blank injection and analyzed for ka (on-rate), kd (off-rate), and KD (affinity) using the Kinetic Interaction Tool software (Carterra Inc.).

cyno PD-L1 = biological target: T4, cyno PD-L1 (cyno); test: BLI (Octet), antibody on AHC biosensor, cyno PD-L1 as analyte
T4 construct: Soluble analyte in BLI
Experimental: as §1

[5] = biological target: T3, human PD-L1 protein (soluble); test: SPR, mAb captured on anti-human IgG Fc, PD-L1 as analyte; remark: listed apart in the source;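 as to koff: array SPR with mAb supernatants captured at several densities, PD-L1 injected for 5 min then 15 min dissociation, non-regenerative kinetic series, double-referenced against interspot surface and blank injection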;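 as to kon: array SPR with mAb supernatants captured at several densities, PD-L1 injected for 5 min then 15 min dissociation, non-regenerative kinetic series, double-referenced against interspot surface and blank injection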
Experimental: as §2, §3, §4

[6] = biological target: T1, PD-L1 expressed on CHO cells; test: flow cytometry on PD-L1 expressing Flp-In CHO cells
Experimental: For cell surface binding studies, PD-L1 expressing Flp-In CHO (Thermo Fisher Scientific) cells were generated and mixed at a 50:50 ratio. One million cells were stained with 1 μg of the disclosed anti-PD-L1 recombinant antibodies in 200 μl of MACS Buffer (DPBS with 0.5% bovine serum albumin and 2 mM EDTA) for 30 minutes at 4 C. Cells were then co-stained with anti-human irrelevant target-APC and anti-human IgG Fc-PE antibodies for 30 minutes at 4 C. An anti-human PD-L1 antibody was used as a control for these mixing experiments and cell viability was assessed with DAPI. Flow cytometry analysis was conducted on a BD Influx at the Stanford Shared FACS Facility and data was analyzed using FlowJo.

T2 sequence (Q9NZQ7 19-239 limits assumed): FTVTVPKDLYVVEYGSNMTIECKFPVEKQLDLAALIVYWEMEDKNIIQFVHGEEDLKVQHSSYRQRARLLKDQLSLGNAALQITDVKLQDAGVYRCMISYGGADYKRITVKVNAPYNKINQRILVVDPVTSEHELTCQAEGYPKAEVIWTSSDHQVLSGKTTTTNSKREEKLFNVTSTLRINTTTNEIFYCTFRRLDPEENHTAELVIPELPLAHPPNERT
T3 sequence (Q9NZQ7 19-239 limits assumed): as above
T1 sequence (Q9NZQ7 19-290 limits assumed): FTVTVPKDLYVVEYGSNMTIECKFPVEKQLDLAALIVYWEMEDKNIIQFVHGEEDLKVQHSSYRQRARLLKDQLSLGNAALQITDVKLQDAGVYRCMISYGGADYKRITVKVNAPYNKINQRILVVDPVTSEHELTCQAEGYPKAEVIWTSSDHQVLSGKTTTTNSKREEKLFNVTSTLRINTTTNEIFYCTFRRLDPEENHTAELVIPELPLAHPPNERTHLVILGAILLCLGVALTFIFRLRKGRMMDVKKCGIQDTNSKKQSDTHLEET

Binder | Promega assay antagonist (EC50, ug/mL) [1] | EC50 (rhPD-L1-Fc) | Kd [2] | Kd [3] | koff [3] | kon [3] | Kd [4] | Kd (cyno PD-L1) | Kd [5] | koff [5] | kon [5] | binding result [6]
antibody A25 (antibody, V domains shown, Derived from a mutagenesis screen of A1; Tested as full-length antibody; also called L25H25) VH: QVQLVQSGAEVKKPGASVKVSCKASGFTFTSYDINWVRQATGQGLEWMGWMHPKSGITGYAQKFQGRVTMTRNTSISTAYMELSNLSSEDTAVYFCARYNYVSGSYDYWGQGTLVTVSS VL: EIVMTQSPATLSLSPGERATLSCWASQSVSSSYLSWYQQKPGQAPRLLIYGASTRATGIPARFSGSGSGTDFTLTISSLQPEDFAVYYCQQDYYLPYTFGQGTKLEIK | 0.063 µg/mL | 0.26 µg/mL | 2.4 nM | 2.44 nM | 0.000809 s⁻¹ | 331000 M⁻¹ s⁻¹ |  |  |  |  |  | 
antibody A4 (antibody, V domains shown, Tested as full-length mAb made in CHO cells; also called L4H4) VH: QVQLVESGGGVVQPGRSLRLSCAASGFTFSNYGMHWVRQAPGKGLEWVAVIWFDGNTKYYTDSVKGRFTISRDNSKNTLYLQMNSLRAEDTAVYYCARDITMVPMDVWGQGTTVTVSS VL: AIQMTQSPSSLSASVGDRVTITCRASQDIRNDLGWYQQQPGKAPKLLIYAASSLQSGVPSRFSGSGSGTDFTLTISSLQPEDFATYYCLQDYNYPPTFGQGTKVEIK | 0.198 µg/mL | 1.25 µg/mL |  |  |  |  | 6.4 nM | 11.3 nM | 6.25 nM | 0.001 s⁻¹ | 160000 M⁻¹ s⁻¹ | 
antibody A5 (antibody, V domains shown, Tested as full-length mAb made in CHO cells; also called L5H5) VH: QVQLVESGGGVVQPGRSLRLSCAASGFAFSSYGMHWVRQAPGKGLEWVALIWFDGNNKFYADSVKGRFTISRDNSKNTLYLQMNSLRAEDTAVYYCARDTTAASFDYWGQGTLVTVSS VL: EIVMTQSPATLSLSPGERATLSCRASQSVSSTYLSWYQQKPGQAPRLLIFGASTRATGIPARFSGSGSGTDFTLTISSLQPEDFAVYYCQQDYNLPPTFGPGTKVDIK | 0.0985 µg/mL | 0.97 µg/mL |  |  |  |  | 15 nM | 8.6 nM | 14.6 nM | 0.0086 s⁻¹ | 590000 M⁻¹ s⁻¹ | 
antibody A7 (antibody, V domains shown, Tested as full-length mAb made in CHO cells; also called L7H7) VH: QVQLQESGPGLVKPSETLSLTCTVSGGSISSYYWSWIRQPPGKGLEWIGYIFYSGSTNYNPSLKSRVTISVDTSKNQFSLKLSSVTAADTAVYFCARDNWHDGGVDYWGQGTLVTVSS VL: EIVMTQSPTTLSLSPGERATLSCRASQSVSSSYLSWYQQKPGQAPRLLIYGASTRATGIPARFSGSGSGTDFTLTISSLQPEDFAVYYCQQDYNLRTFGQGTKVEIK | 0.151 µg/mL | 1.88 µg/mL |  |  |  |  | 17 nM | 23 nM | 16.7 nM | 0.0095 s⁻¹ | 570000 M⁻¹ s⁻¹ | 
antibody A8 (antibody, V domains shown, Tested as full-length mAb made in CHO cells; also called L8H8) VH: QVQLVQSGAEVKKPGASVKVSCKASGYTFTSYGISWVRQAPGQGLEWMGWISAYNGSTNYAQKLQGRVTMTTDTSTSTAYMELRSLRSDDTAVFYCARDDRIAVADYYYYFGMDVWGQGTTVTVSS VL: DIQMTQSPSSLSASVGDRVTITCRASQGIRNDLGWYQQKPGKAPKRLIYAASSLQSGVPSRFSGSGSGTEFTLTISSLQPEDFATYYCLQHNSYPYTFGQGTKLEIK | 0.621 µg/mL | 0.46 µg/mL |  |  |  |  | 22 nM | 18.9 nM | 22.8 nM | 0.013 s⁻¹ | 570000 M⁻¹ s⁻¹ | 
antibody A22 (antibody, V domains shown, Tested as full-length mAb made in CHO cells; also called L22H22) VH: QVQLVQSGAEVKKPGASVKVSCKASGYTFTSYGISWVRQAPGQGLEWMGWISAYNGNTNYAQKLQGRVTMTTDTSTSTAYMELRSLRSDDTAVYYCARGFYYGSWYFDYWGQGTLVTVSS VL: DIQMTQSPSSLSASVGDRVTITCRASQGISSWLAWYQQKPEKAPKSLIYAASSLQSGVPSRFSGSGSGTDFTLTISSLQPEDFATYYCQQYNSYPPTVGGGTKVEIK |  |  |  |  |  |  |  | 38.5 nM |  |  |  | binds
